# Experimental data published in the RNAGym collection of RNA variant scans (doi:10.7554/elife.90254).
# B1: LINE1-full (parent)
# chain: UACGUAGGUGGUUUUCCCCUGAUAGUGCUAAGGGGGCCUGGAAGUUUGGACUGGGCAGAGCUCAACACAGCGUGGCAAAGUGGCUGUGGCUAGACUGCCUCUCUGGAUUCCUCGUCACUCAGCAGGGCAUCUCUGAGAGAAAUGCC
# Variants of: B1
# Experiment: self-cleavage, relative activity (ratio to wild type); higher = more cleavage; in vitro, sequencing; the parent is a self-cleaving ribozyme
row,Variant,self-cleavage
1,UACGUAGGUGGUUUUCCCCUGAUAGUGCUAAGGGGGCCUGGAAGUUUGGACUGGGCAGAGCUCAACACAGCGUGGCAAAGGGGCUGUGGCUAGACUGCCUCUCUGGAUUCCUCGUCACUCAGCAGGGCAUCUCUGAGAGAGAUGCC [U81G A141G],1.85
2,UACGUAGGUGGUUAUCCCCUGAUAGUGCUAAGGGGGCCUGGAAGUUUGGACUGGGCAGGGCUCAACACAGCGUGGCAAAGUGGCUGUGGCUAGACUGCCUCUCUGGAUUCCUCGUCACUCAGCAGGGCAUCUCUGAGAGAAAUGCC [U14A A59G],0.14
3,UACGUAGGUGGUUUUCCCCUGAUAGUGCUAAGGGGGCCUGGAAGUUUGGACUGGGCAGAGCUCAACACAGCGUGGCAAAGUGGCUGCGGCUAGACUGCCUCUCUGGAUUCCUCGUCACUCAGCAGGGCAUCUCUGGGAGAAAUGCC [U87C A136G],0.24
4,UACGUAGGUGGUUUUCCCCUGAUAGUGCUAAGGGGGCCUGGAAGUUUGGACUGGGCAGAGCUCAACUCAGCGUGGCAAAGUGGCUGUGGCAAGACUGCCUCUCUGGAUUCCUCGUCACUCAGCAGGGCAUCUCUGAGAGAAAUGCC [A67U U91A],0.08
5,UACGUAGGUGGUUUUCCCCUGAUAGUGCUAAGGGGGCCUGGAAGUUUGGACUGGGCAGAGCUCAACACAGCGUGGCAAGGUGGCUGUGGCUAGACUGCCUCUCUGGAUUCCUAGUCACUCAGCAGGGCAUCUCUGAGAGAAAUGCC [A79G C113A],0.14
6,UACGUAGGUGGUUUUCCCCUGAUAGUGCUAUGGGGGCCUGGAAGUUUGGAGUGGGCAGAGCUCAACACAGCGUGGCAAAGUGGCUGUGGCUAGACUGCCUCUCUGGAUUCCUCGUCACUCAGCAGGGCAUCUCUGAGAGAAAUGCC [A31U C51G],1.4
7,UACGUAGGUGGUUUUCCCCUGAUAGUGCUAAGGGAGCCUGGAAGUUUGGACUGGGCAGAGCUCAACACAGCGUGGCAAAGUGGCUGUGGCUAGACUGCCUCUCUAGAUUCCUCGUCACUCAGCAGGGCAUCUCUGAGAGAAAUGCC [G35A G105A],1.15
8,UACGUAGGUGGUUUUCCCCUGAUACUGCUAAGGGGGCCUGGAAGUUUGGACUGGGCAGAGCUCAACACAGCGUGGCAAAGUGGCCGUGGCUAGACUGCCUCUCUGGAUUCCUCGUCACUCAGCAGGGCAUCUCUGAGAGAAAUGCC [G25C U85C],0.2
9,UACGUAGGUGGUUUUCCCCUGAUAGUGCUAAGGGGGCCUGGAAGUUUGGACUGGGCAGAGCUCAACACAGCGUGGCAAAGUGGCUGUGGCUAGACUGCCUCCCUGGAUUCCUCGUCACUCAGCGGGGCAUCUCUGAGAGAAAUGCC [U102C A124G],1.11
10,UACGUAGGUGGUUUUCCCUUGAUAGUGCUAAGGGGGCCUGGAAGUUUGGACUGGGCAGAGCUCAACACGGCGUGGCAAAGUGGCUGUGGCUAGACUGCCUCUCUGGAUUCCUCGUCACUCAGCAGGGCAUCUCUGAGAGAAAUGCC [C19U A69G],0.77
11,UACGUAGGUGGUUUUCCCCUGAUAGUGCUAAGGGGGCCUGGAGGUUUGGACUGGGCAGAGCUCAACACAGCGUGGCUAAGUGGCUGUGGCUAGACUGCCUCUCUGGAUUCCUCGUCACUCAGCAGGGCAUCUCUGAGAGAAAUGCC [A43G A77U],1.05
12,UACGUAGGUGGUUUUCCCCUGAUAGUGCUAAGGGGGCCUGGAAGUUUGGACGGGGCAGAGCUCAACACAGCGUGGCAAAGUGGCUGUGGCUAGACUGCCUCUCUGGAUUCCUCGUCACUCAGCAGGGCAUCUCUGAGAGAGAUGCC [U52G A141G],1.72
13,UACGUAGGUGGUUUUCCCCUGAUUGUGCUAAGGGGGCCUGGAAGUUUGGACUGGGCAGAGCUCAACACAGCGUGGCAAAGUGGCUGUGGCUAGACUGCCUCUCUGGAUUCCUCGUCACUCAGCAGGGCAUCUCUGAGAGAACUGCC [A24U A142C],1.54
14,UACGUAGGUGGUUUACCCCUGAUAGUGCUAAGGGGGCCUGGAAGUUUGGACUGGGCAGAGCUCAACACAGCGUGGCAAAGUGGCUGUGGCUAGACUGCCUCUCUGGAUUCCUCGUCACUCAGCAGGGCAGCUCUGAGAGAAAUGCC [U15A U130G],1.09
15,UACGUAGGUGGUUUUCCCCUGGUAGUGCUAUGGGGGCCUGGAAGUUUGGACUGGGCAGAGCUCAACACAGCGUGGCAAAGUGGCUGUGGCUAGACUGCCUCUCUGGAUUCCUCGUCACUCAGCAGGGCAUCUCUGAGAGAAAUGCC [A22G A31U],0.86
16,UACGUAGGUGGUUUUCCCCUGAUAGUGUUAAGGGGGCCUGGAAGUUUGGACUGGGCAGAGCUCAACACAGCGUGGCAAAGUGGCUGUGGCUAGGCUGCCUCUCUGGAUUCCUCGUCACUCAGCAGGGCAUCUCUGAGAGAAAUGCC [C28U A94G],0.3
17,UACGUAGGUGGUUUUCUCCUGAUAGUGCUAAGGGGGCCUGGAAGUUUGGACUGGGCAGAGCUCAACACAGCGUGGCAAAGUGGCUGAGGCUAGACUGCCUCUCUGGAUUCCUCGUCACUCAGCAGGGCAUCUCUGAGAGAAAUGCC [C17U U87A],0.11
18,UACGUAGGUGGUUUUCCCCCGAUAGUGCUAAGGGGGCCUGGAAGUUUGGACUGGGCAGAGCUCAACACAGCGUGGCAAAGUGGCUGUGGCUAGACUGCCUCACUGGAUUCCUCGUCACUCAGCAGGGCAUCUCUGAGAGAAAUGCC [U20C U102A],1.21
19,UACGUAGGUGGUUUUCCCCUGAUAGUGCUAAGGGGGCCUGGAAGUUUGGACUGGGCAGAGCUCAACACAGCGUGGCAAAGUGGCUGUGGCUAGACCGCCUCUCUGGAGUCCUCGUCACUCAGCAGGGCAUCUCUGAGAGAAAUGCC [U96C U108G],0
20,UACGUAGGUGGUUUUCACCUGAUAGUGCUAAGGGGGCCUGGAAGUUUGGACUGGGCAGAGCUCAACACAGCGUGGCAAAGUGGCUGUGGCUAGACUGCCUCUCUGGAUUCCUCGCCACUCAGCAGGGCAUCUCUGAGAGAAAUGCC [C17A U115C],0.71

row,Variant,self-cleavage
1,UACGUAGGUGGUUUUCCCCUGAUAGUGCUAAGGGGGCCUGGAAGUUUGGACUGGGCAGAGCUCAACACAGCGUGGCAAAGUGGCUGUGUCUAGACUGCCUCUCUGGAUUCCUCGUCGCUCAGCAGGGCAUCUCUGAGAGAAAUGCC [G89U A117G],0
2,UACGUAGGUCGUUUUCCCCUGAUAGUGCUAAGGGGGCCUGGAAGUUUGGACUGGACAGAGCUCAACACAGCGUGGCAAAGUGGCUGUGGCUAGACUGCCUCUCUGGAUUCCUCGUCACUCAGCAGGGCAUCUCUGAGAGAAAUGCC [G10C G55A],0.6
3,UACGUAGGUGGUUUUCCCCUGAUAGUGCUAAGGGGGCCUGGGGGUUUGGACUGGGCAGAGCUCAACACAGCGUGGCAAAGUGGCUGUGGCUAGACUGCCUCUCUGGAUUCCUCGUCACUCAGCAGGGCAUCUCUGAGAGAAAUGCC [A42G A43G],1.17
4,UACGUAGGUGGUUUUCCCCUGAUAGUGCUAAGGGGGCCUGGAAGUUUAGACUGGGCAGAGCUCAACACAGCGUGGCAAAGUGGCUGUGGCUGGACUGCCUCUCUGGAUUCCUCGUCACUCAGCAGGGCAUCUCUGAGAGAAAUGCC [G48A A92G],0.09
5,UACGUAGGUGGGUUUCCCCUGAUAGUGCUAAGGGGGCCUGGAAGUUUGGACUGGGCAGAGCUCAACACAGCGUGGCAAAGUGGCUGUGGCUAGACUGCCUCUCUGGAUUCCUCGUCACUCAGCAGGGCACCUCUGAGAGAAAUGCC [U12G U130C],1.43
6,UACGUAGGUGGUUUUCCCCUGAUAGUGCUAAGGGGGCCUGGAAGUUUGGACUGGGCAGAGCUCUACACAGCGUGGCAAAGUGGCUGUGGCUAGACUGCCUCUCUGGAUUCCUCGUCACUCAGCAGGGCAUCUCUGAAAGAAAUGCC [A64U G137A],0.24
7,UACGUAGGUGGUUUUCCCCUGAUAGUGCUAAGAGGGCCUGGAAGUUUGGACUGGGCAGAGCUCAACACAGCGUGGCAAAGUGGCUGUGGCUAGACUGCCUCUCUGGAUUCCUCGUCGCUCAGCAGGGCAUCUCUGAGAGAAAUGCC [G33A A117G],1.91
8,UACGUAGGUGGUUUUCCCCUGAUAGUGCUAAGGGGGCCUGGAAGUUUGGACUGGGCAGAGCUCAACACAGCGUGGCAGAGUGGCUGUGGCUAGACUGCCUCUCUGGAUUCCUCGUCACUCAGCAGGGCUUCUCUGAGAGAAAUGCC [A78G A129U],1.17
9,UACGUAGGUGGUUUUCCCCUGAUAGUGCUAAGGGGGCCUGGAAGUUUGGGCUGGGCAGAGCUCAACACAGCGUGGCAAAGUGGCUGUGGCUAGACUGCCUCGCUGGAUUCCUCGUCACUCAGCAGGGCAUCUCUGAGAGAAAUGCC [A50G U102G],0.51
10,UACGUAGGUGGUUUUCCCCUGAUAGUGUUAAGGGGGCCUGGAAGUUUGGACUGGGCAGAGCUCAACACAGCGUGGCAGAGUGGCUGUGGCUAGACUGCCUCUCUGGAUUCCUCGUCACUCAGCAGGGCAUCUCUGAGAGAAAUGCC [C28U A78G],1
11,UACGUAGGUGGUUUUCCCCUGAUAGUGCUAAGGUGGCCUGGAAGUUUGGACUGGGCAGAGCUCAACACAGCGUGGCAAAGUGGCUGUGGCCAGACUGCCUCUCUGGAUUCCUCGUCACUCAGCAGGGCAUCUCUGAGAGAAAUGCC [G34U U91C],0.51
12,UACGUAGGUGGUUUUCCCCUGAUAGUGCUAAGGGGGCCUGGAAGUUUGGACUGGGCAGAGCUCAACACAGCGUGGCAAAGAGGCUGUGGCUAGACUGCCUCUCUGGAUUCCUCGUCACUCAGCAGGGCAUCUCCGAGAGAAAUGCC [U81A U134C],2.26
13,UACGUAGGUGGUUUUCCCCUGAUAGUGCUAAGGGGGCCUGGAAGUUUGGACUGGGCAGAGCUCAACACAGUGUGGCAAAGUGGCUGUGGCUAGACUGCGUCUCUGGAUUCCUCGUCACUCAGCAGGGCAUCUCUGAGAGAAAUGCC [C71U C99G],0.12
14,UACGUAGGUGGUUUUCCCCUGAUAGUGCUAAGGGGGCCUGGAAGUUUGGACUGGGCAGAGCUCUACACAGCGUGGCAAAGUGGCUGUGGCUAGACUGCCUCUCUGGAUUCCUCGUCACUCAGCAGGGCAUCUCUGAGAGAAUUGCC [A64U A142U],0.46
15,UACGUAGGUGGUUCUCCCCUGAUAGUGCUAAGGGGGCCUGGAAGUUUGGACUGGGCAGAGCUCAACACAGCGUGGCAAAGUGGCUGUGGCUAGACUGCCUCUCAGGAUUCCUCGUCACUCAGCAGGGCAUCUCUGAGAGAAAUGCC [U14C U104A],1.04
16,UACGUAGGUGGUUUUCCCCUGAUAGGGCUAAGGGGGCCUGGAAGUUUGGACUGGGCAGAGCUCAACACAGCGUGGCAAAGUGGCUGUGGCUAGACUGCCUCUCUGGAAUCCUCGUCACUCAGCAGGGCAUCUCUGAGAGAAAUGCC [U26G U108A],1.03
17,UACGUAGGUGGUUUUCCCCUGAUAGUGCUAAGGGGGCCUGGAAGUUUGGACUGGGCAGAGCUCAACACAGCGUGGCAAAGUGGCUGUGGCUAGACUGCCCCUCUGGAUUCCUCGUCACUCGGCAGGGCAUCUCUGAGAGAAAUGCC [U100C A121G],1.21
18,UACGUAGGUGGUUUUCCCCUGAUAGUGCUAAGGGGGACUGGAAGUUUGGACUGGGCAGAGCUCAACACAGCGUGGCAAAGUGGCUGUGGCUAGACUGCCUCUCUGGAUUCCUCGUCACUCAGCAGGGCAUCUCUGAGAGAAGUGCC [C37A A142G],1.24
19,UACGUAGGUGGUUUUCCCCUGGUAGUGCUAAGUGGGCCUGGAAGUUUGGACUGGGCAGAGCUCAACACAGCGUGGCAAAGUGGCUGUGGCUAGACUGCCUCUCUGGAUUCCUCGUCACUCAGCAGGGCAUCUCUGAGAGAAAUGCC [A22G G33U],1.25
